One series deals with His-p65 (UniProt Q04206). The series is described as follows: SPR. The settings on record: SPR: 10 mM HEPES, 150 mM NaCl, 3 mM EDTA, 0.05% P20, pH not stated, room temp, EMSA: 10 mM Tris-HCl pH 7.5, 10 mM NaCl, 40 mM KCl, 1 mM MgCl2, 1 mM EDTA. (In general: Mobility shift assays separate free from complexed probe on a gel.)
The target in the next series is T1, His-TonEBP sNT (UniProt O94916 1-548).
T1 sequence: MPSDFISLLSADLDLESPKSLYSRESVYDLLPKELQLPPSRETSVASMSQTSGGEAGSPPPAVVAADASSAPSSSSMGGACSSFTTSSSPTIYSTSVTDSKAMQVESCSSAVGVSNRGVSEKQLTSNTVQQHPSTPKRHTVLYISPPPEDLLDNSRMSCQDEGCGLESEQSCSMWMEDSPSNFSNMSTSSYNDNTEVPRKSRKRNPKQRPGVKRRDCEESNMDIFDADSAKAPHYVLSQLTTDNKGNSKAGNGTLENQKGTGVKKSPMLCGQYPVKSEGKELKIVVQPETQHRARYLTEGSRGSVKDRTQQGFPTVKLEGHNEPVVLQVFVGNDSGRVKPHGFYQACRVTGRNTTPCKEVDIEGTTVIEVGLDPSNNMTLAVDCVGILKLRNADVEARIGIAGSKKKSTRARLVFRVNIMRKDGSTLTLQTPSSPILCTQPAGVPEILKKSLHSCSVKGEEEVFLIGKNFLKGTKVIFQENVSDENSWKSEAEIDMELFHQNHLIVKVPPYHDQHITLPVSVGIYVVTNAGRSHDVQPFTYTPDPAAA
In words: SPR; SPR: 10 mM HEPES, 150 mM NaCl, 3 mM EDTA, 0.05% P20, pH not stated, room temp; EMSA: 10 mM Tris-HCl pH 7.5, 10 mM NaCl, 40 mM KCl, 1 mM MgCl2, 1 mM EDTA, 1 mM DTT, 50 ug/mL BSA, 100 nM probe, 25 min room temp, 0.8% agarose. The settings on record: protein: recombinant; tags: N-terminal His; chain copies: 2; label: biotin (SPR), 5' end of strand 1 as printed; text says dsDNA, only one strand given.

Usually Kd stands for the concentration at which binding is half-saturated.

Sequence of His-p65 (Q04206 whole entry): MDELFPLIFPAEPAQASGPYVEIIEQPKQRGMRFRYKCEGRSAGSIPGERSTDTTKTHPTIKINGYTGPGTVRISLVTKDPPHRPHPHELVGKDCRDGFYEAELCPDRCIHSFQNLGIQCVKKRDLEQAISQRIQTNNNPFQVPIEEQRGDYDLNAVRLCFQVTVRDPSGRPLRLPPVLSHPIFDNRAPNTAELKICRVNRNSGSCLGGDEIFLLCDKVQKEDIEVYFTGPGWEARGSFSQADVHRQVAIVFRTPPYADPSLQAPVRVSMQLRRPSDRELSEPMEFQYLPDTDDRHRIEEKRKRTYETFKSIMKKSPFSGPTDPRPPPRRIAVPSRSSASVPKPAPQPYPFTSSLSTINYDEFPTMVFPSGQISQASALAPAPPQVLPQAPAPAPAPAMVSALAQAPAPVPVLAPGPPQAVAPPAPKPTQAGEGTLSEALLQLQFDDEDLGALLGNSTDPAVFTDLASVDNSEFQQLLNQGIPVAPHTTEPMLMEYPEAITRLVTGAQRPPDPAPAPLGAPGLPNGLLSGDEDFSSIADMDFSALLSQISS

In the case of “AATGTAAGTGGGAAATTCCTCTGAATA (double strand) [Probe p65]”, in the series with His-p65, the Kd turned out to be 35.2 nM.
The same measure, in the same setting: under “ATAGGAAAACTGAAAGGGAGAAGTGAAAGTGGGAAATTCC (double strand) [Probe IRF3/p65]” stands 11.5 nM.

B1: Probe p65 (dsDNA)
DNA 1: AATGTAAGTGGGAAATTCCTCTGAATA
DNA 2: TATTCAGAGGAATTTCCCACTTACATT
For B1, the Kd with His-TonEBP sNT amounted to 84.7 nM.

B2: Probe IRF3/p65 (dsDNA)
DNA 1: ATAGGAAAACTGAAAGGGAGAAGTGAAAGTGGGAAATTCC
DNA 2: GGAATTTCCCACTTTCACTTCTCCCTTTCAGTTTTCCTAT
For B2, the Kd in the series with His-TonEBP sNT was found to be 31.3 nM.

(Values after paper PMC11476177.)
